Results reported in PMC5643558.

Key:
[1] = biological target: TRIM21 (UniProt P19474); assay: S-tag pull-down after in vitro kinase assay; conditions: sites S386
[2] = biological target: TRIM21 (UniProt P19474); assay: SFB-TRIM21 pull-down from cells, Flag blot; conditions: reference: WT Flag-rPFKP, EGF; sites S386

## PFKP (phosphofructokinase 1 platelet isoform) (from UniProt Q01813) WT PFKP incubated with active GST-AKT1
[1]; reference: WT PFKP without AKT1
  binding against the reference: weaker

## PFKP (phosphofructokinase 1 platelet isoform) (from UniProt Q01813) PFKP S386A incubated with active GST-AKT1
[1]; reference: WT PFKP incubated with active GST-AKT1
  binding against the reference: stronger

## PFKP (phosphofructokinase 1 platelet isoform) (from UniProt Q01813) Flag-rPFKP S386A, EGF
[2]
  binding against the reference: stronger
